Measurements from publication doi:10.1101/2025.03.12.642038, “Structural, biophysical and biological analysis and characterisation of IRF4 DNA-binding domain mutations associated with multiple myeloma”.

Legend:
Conditions in all cases: protein: recombinant; tags: N-terminal His8-linker-His8-TEV, cleaved; label: 3' biotin; hairpin, TTTT loop
IRF4 DBD D117H [1] = biological target: T1, IRF4 DBD D117H (Homo sapiens, UniProt Q15306 20-132, D117H); assay: SPR steady state; FP: PBS + 0.05% Tween20, 5 nM DNA, 1 h, room temperature; SPR: Biacore S200, SA chip, protein 0.1-4500 nM, running buffer not given in material; errors are SD
T1 sequence: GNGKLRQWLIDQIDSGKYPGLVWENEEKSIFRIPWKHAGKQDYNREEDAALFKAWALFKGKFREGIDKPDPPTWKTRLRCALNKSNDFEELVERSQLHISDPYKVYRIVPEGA

IRF4 DBD T95R = biological target: T2, IRF4 DBD T95R (Homo sapiens, UniProt Q15306 20-132, T95R); assay: as above
T2 sequence: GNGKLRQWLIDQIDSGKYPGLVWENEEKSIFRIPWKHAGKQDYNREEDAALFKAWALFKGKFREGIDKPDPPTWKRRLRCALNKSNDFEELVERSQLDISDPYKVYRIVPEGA

IRF4 DBD wild-type = biological target: T3, IRF4 DBD wild-type (Homo sapiens, UniProt Q15306 20-132); assay: as above
T3 sequence: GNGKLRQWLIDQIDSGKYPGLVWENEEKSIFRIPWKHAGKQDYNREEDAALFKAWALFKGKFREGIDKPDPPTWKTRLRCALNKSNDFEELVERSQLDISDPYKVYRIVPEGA

IRF4 DBD S114R = biological target: T4, IRF4 DBD S114R (Homo sapiens, UniProt Q15306 20-132, S114R); assay: as above
T4 sequence: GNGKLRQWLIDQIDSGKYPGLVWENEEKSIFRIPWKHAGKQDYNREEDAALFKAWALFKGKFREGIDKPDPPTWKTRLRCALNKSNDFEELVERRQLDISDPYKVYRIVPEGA

IRF4 DBD T95K [2] = biological target: T5, IRF4 DBD T95K (Homo sapiens, UniProt Q15306 20-132, T95K); assay: as above
T5 sequence: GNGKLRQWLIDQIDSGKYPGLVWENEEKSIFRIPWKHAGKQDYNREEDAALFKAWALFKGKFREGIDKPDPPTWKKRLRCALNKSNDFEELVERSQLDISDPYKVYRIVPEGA

IRF4 DBD D106Y = biological target: T6, IRF4 DBD D106Y (Homo sapiens, UniProt Q15306 20-132, D106Y); assay: SPR two-state kinetic; FP: PBS + 0.05% Tween20, 5 nM DNA, 1 h, room temperature; SPR: Biacore S200, SA chip, protein 0.1-4500 nM, running buffer not given in material; errors are SD
T6 sequence: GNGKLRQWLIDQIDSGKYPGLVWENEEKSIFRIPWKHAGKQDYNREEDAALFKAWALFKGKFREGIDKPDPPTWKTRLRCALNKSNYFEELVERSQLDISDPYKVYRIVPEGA

IRF4 DBD D117H [3] = biological target: T1, IRF4 DBD D117H; assay: as above
IRF4 DBD K123R = biological target: T7, IRF4 DBD K123R (Homo sapiens, UniProt Q15306 20-132, K123R); assay: as above
T7 sequence: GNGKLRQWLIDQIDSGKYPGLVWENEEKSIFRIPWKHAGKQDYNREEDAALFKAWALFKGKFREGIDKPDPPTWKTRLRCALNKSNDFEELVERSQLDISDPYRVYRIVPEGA

IRF4 DBD K59R = biological target: T8, IRF4 DBD K59R (Homo sapiens, UniProt Q15306 20-132, K59R); assay: as above
T8 sequence: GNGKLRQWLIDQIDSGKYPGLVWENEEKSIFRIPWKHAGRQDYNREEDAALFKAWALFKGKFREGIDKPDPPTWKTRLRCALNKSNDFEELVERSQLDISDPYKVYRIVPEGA

IRF4 DBD K59N = biological target: T9, IRF4 DBD K59N (Homo sapiens, UniProt Q15306 20-132, K59N); assay: as above
T9 sequence: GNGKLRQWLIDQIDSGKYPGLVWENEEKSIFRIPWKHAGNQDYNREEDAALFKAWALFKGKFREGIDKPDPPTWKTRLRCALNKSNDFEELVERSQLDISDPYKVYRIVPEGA

IRF4 DBD T95K [4] = biological target: T5, IRF4 DBD T95K; assay: as above

CTTGGTTTCACTTCCTGCGTTTTCGCAGGAAGTGAAACCAAG (structured_DNA) [IRE hairpin (biotin)] was tested, and the Kd (IRF4 DBD D117H [1]) was 247 ± 84 nM, the Kd (IRF4 DBD T95R) was 449 ± 49 nM and the Kd (IRF4 DBD wild-type) was 402 ± 165 nM. It also gave a Kd (IRF4 DBD S114R) of 213 ± 94 nM, a Kd (IRF4 DBD T95K [2]) of 594 ± 251 nM and a Kd (IRF4 DBD D106Y) of 135 ± 121 nM. It also gave a Kd (IRF4 DBD D117H [3]) of 204 ± 131 nM, a Kd (IRF4 DBD K123R) of 1110 ± 341 nM and a Kd (IRF4 DBD K59R) of 460 ± 429 nM. The Kd (IRF4 DBD K59N) was 107 ± 133 nM and the Kd (IRF4 DBD T95K [4]) was 913 ± 147 nM.
